Assay results taken from the supplement of paper PMC11246515.
± gives the standard deviation of the averaged measurements.

Experiment: total protein half-life in vivo (active degradation + dilution); higher = more stable protein
[1] = E. coli NCM3722 delta-clpP delta-lon delta-hslV, growth: N-lim chemostat, doubling time 6 h
[2] = E. coli NCM3722 delta-clpP, growth: N-lim chemostat, doubling time 6 h
[3] = E. coli NCM3722 delta-hslV, growth: N-lim chemostat, doubling time 6 h
[4] = E. coli NCM3722 delta-lon, growth: N-lim chemostat, doubling time 6 h
[5] = E. coli NCM3722 delta-smpB, growth: N-lim chemostat, doubling time 6 h
[6] = wild type E. coli NCM3722, growth: C-lim chemostat, doubling time 3 h
[7] = wild type E. coli NCM3722, growth: C-lim chemostat, doubling time 6 h
[8] = wild type E. coli NCM3722, growth: C-lim chemostat, doubling time 12 h
[9] = wild type E. coli NCM3722, growth: N-lim chemostat, doubling time 6 h
[10] = wild type E. coli NCM3722, growth: N-lim chemostat, doubling time 12 h
[11] = wild type E. coli NCM3722, growth: P-lim chemostat, doubling time 6 h
[12] = wild type E. coli NCM3722, growth: P-lim chemostat, doubling time 12 h

Sequence | total protein half-life in vivo [1] | total protein half-life in vivo [2] | total protein half-life in vivo [3] | total protein half-life in vivo [4] | total protein half-life in vivo [5] | total protein half-life in vivo [6] | total protein half-life in vivo [7] | total protein half-life in vivo [8] | total protein half-life in vivo [9] | total protein half-life in vivo [10] | total protein half-life in vivo [11] | total protein half-life in vivo [12]
MGRKWANIVAKKTAKDGATSKIYAKFGVEIYAAAKQGEPDPELNTSLKFVIERAKQAQVPKHVIDKAIDKAKGGGDETFVQGRYEGFGPNGSMIIAETLTSNVNRTIANVRTIFNKKGGNIGAAGSVSYMFDNTGVIVFKGTDPDHIFEILLEAEVDVRDVTEEEGNIVIYTEPTDLHKGIAALKAAGITEFSTTELEMIAQSEVELSPEDLEIFEGLVDALEDDDDVQKVYHNVANL [P0A8A2] | 5.2 ± 0.11 h | 4.981 ± 0.0067 h | 4.11 ± 0.057 h | 5.18 ± 1 h | 4.17 ± 0.56 h | 2.95 ± 0.35 h | 5.79 ± 1.9 h | 9.45 ± 0.47 h | 4.55 ± 0.5 h | 7.06 ± 0.55 h | 5.02 ± 0.079 h | 9.37 ± 0.61 h
MGSDAKNLMSDGNVQIVKTGEVIGATQLTEGELIVEAGGRAENTVVTGAGWLKVATGGIAKCTQYGNNGTLSVSDGAIATDIVQSEGGAISLSTLATVNGRHPEGEFSVDKGYACGLLLENGGNLRVLEGHRAEKIILDQEGGLLVNGTTSAVVVDEGGELLVYPGGEASNCEINQGGVFMLAGKASDTLLAGGTMNNLGGEDSDTIVENGSIYRLGTDGLQLYSSGKTQNLSVNVGGRAEVHAGTLENAVIQGGTVILLSPTSADENFVVEEDRAPVELTGSVALLDGASMIIGYGAELQQSTITVQQGGVLILDGSTVKGDSVTFIVGNINLNGGKLWLITDAATHVQLKVKRLRGEGAICLQTSAKEISPDFINVKGEVTGDIHVEITDASRQTLCNALKLQPDEDGIGATLQPA | 4.99 ± 0.55 h | 4.73 ± 0.33 h | 0.86 ± 0.11 h | 1.12 ± 0.029 h | 0.827 ± 0.0095 h | 1.15 ± 0.029 h | 1.56 ± 0.18 h | 2.44 ± 0.65 h | 1.07 ± 0.041 h | 1.32 ± 0.13 h | 1.73 ± 0.34 h | 3.47 ± 1.2 h
MGSEISKKDITRLGFRSSLLQASFNYERMQAGGFTWAMLPILKKIYKDDKPGLSAAMKDNLEFINTHPNLVGFLMGLLISMEEKGENRDTIKGLKVALFGPIAGIGDAIFWFTLLPIMAGICSSFASQGNLLGPILFFAVYLLIFFLRVGWTHVGYSVGVKAIDKVRENSQMIARSATILGITVIGGLIASYVHINVVTSFAIDNTHSVALQQDFFDKVFPNILPMAYTLLMYYFLRVKKAHPVLLIGVTFVLSIVCSAFGIL | – | – | – | – | – | – | – | – | – | – | – | 4.67 h
MGSQELQRKLGFWAVLAIAVGTTVGSGIFVSVGEVAKAAGTPWLTVLAFVIGGLIVIPQMCVYAELSTAYPENGADYVYLKNAGSRPLAFLSGWASFWANDAPSLSIMALAIVSNLGFLTPIDPLLGKFIAAGLIIAFMLLHLRSVEGGAAFQTLITIAKIIPFTIVIGLGIFWFKAENFAAPTTTAIGATGSFMALLAGISATSWSYTGMASICYMTGEIKNPGKTMPRALIGSCLLVLVLYTLLALVISGLMPFDKLANSETPISDALTWIPALGSTAGIFVAITAMIVILGSLSSCVMYQPRLEYAMAKDNLFFKCFGHVHPKYNTPDVSIILQGALGIFFIFVSDLTSLLGYFTLVMCFKNTLTFGSIIWCRKRDDYKPLWRTPAFGLMTTLAIASSLILVASTFVWAPIPGLICAVIVIATGLPAYAFWAKRSRQLNALS | – | – | – | – | – | 3.26 h | – | – | – | – | – | –
MGSTRKGMLNVLIAAVLWGSSGVCAQYIMEQSQMSSQFLTMTRLIFAGLILLTLSFVHGDKIFSIINNHKDAISLLIFSVVGALTVQLTFLLTIEKSNAATATVLQFLSPTIIVAWFSLVRKSRPGILVFCAILTSLVGTFLLVTHGNPTSLSISPAALFWGIASAFAAAFYTTYPSTLIARYGTLPVVGWSMLIGGLILLPFYARQGTNFVVNGSLILAFFYLVVIGTSLTFSLYLKGAQLIGGPKASILSCAEPLSSALLSLLLLGITFTLPDWLGTLLILSSVILISMDSRRRARKINRPARHK | – | 6.18 h | 4.72 ± 1.2 h | 5.26 h | – | – | 6.04 h | 13.3 h | 5.29 h | 12.8 h | 5.97 h | 12 ± 0.74 h
MGSTSSLYAAIDLGSNSFHMLVVREVAGSIQTLTRIKRKVRLAAGLNSENALSNEAMERGWQCLRLFAERLQDIPPSQIRVVATATLRLAVNAGDFIAKAQEILGCPVQVISGEEEARLIYQGVAHTTGGADQRLVVDIGGASTELVTGTGAQTTSLFSLSMGCVTWLERYFADRNLGQENFDAAEKAAREVLRPVADELRYHGWKVCVGASGTVQALQEIMMAQGMDERITLEKLQQLKQRAIHCGRLEELEIDGLTLERALVFPSGLAILIAIFTELNIQCMTLAGGALREGLVYGMLHLAVEQDIRSRTLRNIQRRFMIDIDQAQRVAKVAANFFDQVENEWHLEAISRDLLISACQLHEIGLSVDFKQAPQHAAYLVRNLDLPGFTPAQKKLLATLLLNQTNPVDLSSLHQQNAVPPRVAEQLCRLLRLAIIFASRRRDDLVPEMTLQANHELLTLTLPQGWLTQHPLGKEIIAQESQWQSYVHWPLEVH | 4.11 ± 0.81 h | 3.91 ± 0.1 h | 3.77 ± 0.53 h | 3.75 ± 0.87 h | 3.64 ± 0.35 h | 2.92 ± 0.24 h | 5.11 ± 0.2 h | 9.31 ± 0.75 h | 3.94 ± 0.33 h | 5.6 ± 0.23 h | 5.28 ± 1 h | 11.3 ± 0.41 h
MGTTKHSKLLILGSGPAGYTAAVYAARANLQPVLITGMEKGGQLTTTTEVENWPGDPNDLTGPLLMERMHEHATKFETEIIFDHINKVDLQNRPFRLNGDNGEYTCDALIIATGASARYLGLPSEEAFKGRGVSACATCDGFFYRNQKVAVIGGGNTAVEEALYLSNIASEVHLIHRRDGFRAEKILIKRLMDKVENGNIILHTNRTLEEVTGDQMGVTGVRLRDTQNSDNIESLDVAGLFVAIGHSPNTAIFEGQLELENGYIKVQSGIHGNATQTSIPGVFAAGDVMDHIYRQAITSAGTGCMAALDAERYLDGLADAK [P0A9P4] | 4.04 ± 0.12 h | 3.95 ± 0.56 h | 3.57 ± 0.13 h | 3.954 ± 0.035 h | 3.71 ± 0.12 h | 3.16 ± 0.09 h | 5.74 ± 0.6 h | 10.2 ± 1.8 h | 3.8 ± 0.19 h | 6.33 ± 0.39 h | 5.05 ± 0.65 h | 10.7 ± 0.32 h
MGYLNNVTGYREDLLANRAIVKHGNFALLTPDGLVKNIIPGFENCDATILSTPKLGASFVDYLVTLHQNGGNQQGFGGEGIETFLYVISGNITAKAEGKTFALSEGGYLYCPPGSLMTFVNAQAEDSQIFLYKRRYVPVEGYAPWLVSGNASELERIHYEGMDDVILLDFLPKELGFDMNMHILSFAPGASHGYIETHVQEHGAYILSGQGVYNLDNNWIPVKKGDYIFMGAYSLQAGYGVGRGEAFSYIYSKDCNRDVEI | 4.66 ± 0.65 h | 4.57 ± 0.21 h | 4.56 ± 0.21 h | 4.35 ± 0.076 h | 4.52 ± 0.48 h | – | 6.13 ± 0.5 h | 10.8 ± 1.2 h | 4.4 ± 0.1 h | 7 ± 0.45 h | 5.21 ± 0.26 h | 11.1 ± 0.86 h
MHAYLHCLSHSPLVGYVDPAQEVLDEVNGVIASARERIAAFSPELVVLFAPDHYNGFFYDVMPPFCLGVGATAIGDFGSAAGELPVPVELAEACAHAVMKSGIDLAVSYCMQVDHGFAQPLEFLLGGLDKVPVLPVFINGVATPLPGFQRTRMLGEAIGRFTSTLNKRVLFLGSGGLSHQPPVPELAKADAHMRDRLLGSGKDLPASERELRQQRVISAAEKFVEDQRTLHPLNPIWDNQFMTLLEQGRIQELDAVSNEELSAIAGKSTHEIKTWVAAFAAISAFGNWRSEGRYYRPIPEWIAGFGSLSARTEN [P0ABR9] | 5.32 h | – | – | – | – | – | – | – | – | – | – | –
